Measured values taken from patent US20160115217A1.

Legend:
[1] = biological target: Flt1 (VEGFR-1) on Ad-N1IC-transduced HUVEC (human) (UniProt P17948); test: cell-based or functional assay
[2] = biological target: Notch1 (full-length receptor expressed on cells); test: cell-based or functional assay

Chain of Flt1 (VEGFR-1) on Ad-N1IC-transduced HUVEC (human) (P17948 27-1338): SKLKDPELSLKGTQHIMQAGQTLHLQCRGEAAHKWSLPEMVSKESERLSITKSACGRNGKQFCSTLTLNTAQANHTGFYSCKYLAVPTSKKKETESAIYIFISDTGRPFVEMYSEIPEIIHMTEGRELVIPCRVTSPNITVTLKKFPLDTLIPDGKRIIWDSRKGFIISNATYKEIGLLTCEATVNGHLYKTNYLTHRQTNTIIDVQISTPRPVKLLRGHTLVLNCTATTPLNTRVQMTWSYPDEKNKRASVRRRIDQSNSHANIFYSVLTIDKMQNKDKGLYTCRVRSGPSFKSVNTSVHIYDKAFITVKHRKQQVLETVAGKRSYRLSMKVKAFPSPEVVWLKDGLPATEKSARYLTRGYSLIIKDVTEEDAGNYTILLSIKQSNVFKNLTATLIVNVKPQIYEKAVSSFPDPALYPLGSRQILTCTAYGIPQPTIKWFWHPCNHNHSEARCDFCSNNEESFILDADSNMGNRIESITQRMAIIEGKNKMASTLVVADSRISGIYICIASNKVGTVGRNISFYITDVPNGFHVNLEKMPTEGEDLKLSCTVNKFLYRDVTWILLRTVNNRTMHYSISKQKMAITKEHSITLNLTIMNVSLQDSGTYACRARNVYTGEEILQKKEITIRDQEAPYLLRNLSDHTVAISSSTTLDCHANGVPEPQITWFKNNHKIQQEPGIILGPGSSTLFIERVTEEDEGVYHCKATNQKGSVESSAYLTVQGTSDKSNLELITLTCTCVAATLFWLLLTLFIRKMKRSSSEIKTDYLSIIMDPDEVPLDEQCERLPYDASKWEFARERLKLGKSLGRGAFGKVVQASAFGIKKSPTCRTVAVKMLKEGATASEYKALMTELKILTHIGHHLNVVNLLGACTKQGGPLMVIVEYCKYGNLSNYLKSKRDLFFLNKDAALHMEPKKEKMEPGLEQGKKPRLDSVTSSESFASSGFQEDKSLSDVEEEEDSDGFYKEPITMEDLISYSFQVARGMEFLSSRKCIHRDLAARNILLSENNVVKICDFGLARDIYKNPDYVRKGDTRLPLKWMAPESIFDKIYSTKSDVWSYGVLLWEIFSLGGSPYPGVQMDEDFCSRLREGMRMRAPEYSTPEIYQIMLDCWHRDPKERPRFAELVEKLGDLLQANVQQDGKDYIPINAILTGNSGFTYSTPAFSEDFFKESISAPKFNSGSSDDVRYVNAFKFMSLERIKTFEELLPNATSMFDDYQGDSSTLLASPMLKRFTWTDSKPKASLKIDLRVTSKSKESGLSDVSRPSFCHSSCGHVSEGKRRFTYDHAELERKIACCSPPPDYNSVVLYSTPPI

P1GF (placental growth factor) (ligand)
HUVEC buds containing multiple filopodia [1]: 250%

Jagged1 (ligand)
Hes1 reporter gene activity [2]: 3.7 fold
